According to US20080003178A1 (BIOINCEPT, published 2008):
Primed or numbered codes have the meaning given here. No end group written: not given here. FITC′ = fluorescein label, attached via β-alanine spacer; βAla = NCCC(=O)O

Target: T1, CD58 (human, UniProt P19256 29-250)
T1 construct: whole, on cells; also called platelet marker CD58
T1 sequence: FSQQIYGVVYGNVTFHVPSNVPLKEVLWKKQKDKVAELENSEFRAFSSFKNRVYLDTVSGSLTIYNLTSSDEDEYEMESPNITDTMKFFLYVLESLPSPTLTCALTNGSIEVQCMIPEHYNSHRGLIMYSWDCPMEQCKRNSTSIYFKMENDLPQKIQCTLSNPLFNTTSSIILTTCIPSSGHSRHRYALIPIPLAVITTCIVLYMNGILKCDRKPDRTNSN
Assay: flow cytometry, FITC sPIF-1(15) on human blood cells; no binding to platelets

B1: FITC labeled sPIF-1(15) (peptide)
peptide: {FITC′-βAla}-MVRIKPGSANKPSDD
notes: also called FITC sPIF-1(15); FITC sPIF-1
- binding result: no binding
